Data set [1] can be described thus: stability and formulation pH. In kind it is physicochemical. The text has this:
As shown previously for plasmin by Novokhatny et al., J. Thromb. Haemost. […] When mixed with plasma or neutral pH buffers, (TAL6003)-plasmin is quickly re-activated.

A short description of data set [2]: amidolytic activity with plasmin substrate S-2251, steady-state kinetics. To be noted: substrate S-2251, PBS buffer, pH 7.4, 25° C. Format: biochemical. Here is the method:
The amidolytic activity of (TAL6003)-plasmin was examined using the plasmin substrate D-Val-Leu-Lys-p-nitroanilide (S-2251) (DiaPharma, West Chester, Ohio).
(§1) Correcting kcat for percent active sites, a kcat of about 725 min^−1 was determined. This value was very close to the value determined in the same assay for full-length plasmin, 820±23 min^−1 and for micro-plasmin (lacking all five kringles), 795±24 min^−1.

The next data set deals with T1, α2-antiplasmin (Homo sapiens, UniProt P08697).
T1 sequence (P08697 40-491): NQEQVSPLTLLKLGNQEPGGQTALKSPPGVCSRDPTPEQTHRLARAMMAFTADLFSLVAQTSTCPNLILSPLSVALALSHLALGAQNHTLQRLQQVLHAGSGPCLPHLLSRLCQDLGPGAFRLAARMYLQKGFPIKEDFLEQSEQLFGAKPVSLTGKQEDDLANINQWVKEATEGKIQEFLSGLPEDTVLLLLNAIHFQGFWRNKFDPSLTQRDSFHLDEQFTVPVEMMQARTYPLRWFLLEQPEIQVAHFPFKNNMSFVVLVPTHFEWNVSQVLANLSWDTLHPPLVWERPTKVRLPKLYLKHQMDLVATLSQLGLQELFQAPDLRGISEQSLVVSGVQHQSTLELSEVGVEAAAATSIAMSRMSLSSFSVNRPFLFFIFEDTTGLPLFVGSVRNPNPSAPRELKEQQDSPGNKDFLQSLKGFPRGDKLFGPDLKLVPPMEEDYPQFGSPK
Put plainly: rate of inhibition by α2-antiplasmin (method of Wiman and Collen, S-2251 activity at time points). Format: biochemical. To be noted: 22° C. in PBS buffer, pH 7.4. Here is the method: The rate of inhibition of (TAL6003)-plasmin by α2-antiplasmin was determined to be 1.8±0.06×10^7 M^−1 s^−1 using the method of Wiman and Collen (Wiman, B. and D. Collen, Eur. J. Biochem. 84: 573-578 (1978)) in which plasmin and α2-antiplasmin are mixed then assayed for S-2251 activity at specific time points (Table 3).
Literature values are taken from Anonick, et al., Thrombosis Res. 59: 449 (1990). All rates were measured according to the methods published in Anonick, et al.

Data set [3] in a line: pNPGB active site titration. Format: biochemical. Here is the method: as §1
The nature of data set [4]: amidolytic activity with plasmin substrate S-2251, steady-state kinetics. Format: biochemical. The note with it: S-2251, PBS, pH 7.4, 25° C.; before correction for percent active sites.

One may read the Km as the substrate concentration at which the rate is half of its maximum.

B1: (TAL6003)-plasmin: two-chain active enzyme obtained by streptokinase activation of (TAL6003)-plasminogen (protein)
chain: MRDVVLFEKKVYLSECKTGNGKNYRGTMSKTKNGITCQKWSSTSPHRPRFSPATHPSEGLEENYCRNPDNDPQGPWCYTTDPEKRYDYCDVPQCAAPSFDCGKPQVEPKKCPGRVVGGCVAHPHSWPWQVSLRTRFGMHFCGGTLISPEWVLTAAHCLEKSPRPSSYKVILGAHQEVNLEPHVQEIEVSRLFLEPTRKDIALLKLSSPAVITDKVIPACLPSPNYVVADRTECFITGWGETQGTFGAGLLKEAQLPVIENKVCNRYEFLNGRVQSTELCAGHLAGGTDSCQGDSGGPLVCFEKDKYILQGVTSWGLGCARPNKPGVYVRVSRFVTWIEGVMRNN
modifications: Polypeptide having a single N-terminal kringle domain homologous to a kringle domain of a native human plasminogen
For the molecule B1, the “storage stability in the final formulation” value in data set [1] (pH 3.6, acidified with acetic acid-saline, low buffering capacity) is listed as “allows safe storage of active plasmins for prolonged periods of time”. Also, the “stability at physiological pH” value in data set [1] (physiological pH) is listed as “prone to auto-degradation”. Moreover, in data set [2], the Km is 141 µM. Further, the “rate of inhibition by α2-antiplasmin” value with α2-antiplasmin is 1.8±0.06×10^7 M^−1 s^−1. In addition, in data set [3], the “percent of functional active sites” value is recorded as 67%. In data set [4], the “kcat for the preparation” value was “about 725 min−1”.

For the origin of these results see patent publication US20120093799A1, “RECOMBINANTLY MODIFIED PLASMIN” (priority 2007, published 2012).
